B1: minF1; a variant is named by its letters at N, in order (parent)
chain: GAGACCGCAACTGAAAAGTTGTTNNNNAANNNNNGGNTNAATTTCTGCACGTAGAAGCAAAAGGC

Variants of: B1
Assay: fraction ligated after 30 min (ligated reads / total reads); higher = more ligase activity
Conditions: with F1*subA RNA substrate (template-directed ligation), 42 °C
Summary of the method: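 RNAs for minimized ligase ribozyme variants were transcribed with T7 from PCR-amplified oligo-pool templates and purified on gels. Ligated and unligated species were resolved on gels, converted to cDNA with barcoded primers, and read on a MiSeq with core bases filtered at quality ≥30. Fraction ligated per variant is the ratio of ligated reads to total reads.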

Variant | fraction ligated
GAGACCGCAACTGAAAAGTTGTTTCGAAAGGATGGGTTGAATTTCTGCACGTAGAAGCAAAAGGC [TCGAGGATGTG] | 0.00582
GAGACCGCAACTGAAAAGTTGTCAGAAATGGATGGGTTGAATTTCTGCACGTAGAAGCAAAAGGC [AGAAGGATGTG T23C A29T] | 0.0071
GAGACCGCAACTGAAAAGTTGTATCAGAATGGATGGTTGAATTTCTGCACGTAGAAGCAAAAGGC [TCAGTGGATTG T23A] | 0.0201
GAGACCGCAACTGAAAAGTTGTATGAAATGGATGGGTTGAATTTCTGCACGTAGAAGCAAAAGGC [TGAAGGATGTG T23A A29T] | 0.00369
GAGACCGCAACTGAAAAGTTGTATCGAAAGGATGGGTTGAATTTCTGCACGTAGAAGCAAAAGGC [TCGAGGATGTG T23A] | 0
GAGACCGCAACTGAAAAGTTGTTTCAGAATGGATGGGTTGATTTCTGCACGTAGAAGCAAAAGGC [TCAGTGGATGT A40G] | 0.0137
GAGACCGCAACTGAAAAGTTGTTATAAATGGATGGGTTGAATTTCTGCACGTAGAAGCAAAAGGC [ATAAGGATGTG A29T] | 0.0199
GAGACCGCAACTGAAAAGTTGTAAGAAATGGATGGGTTGAATTTCTGCACGTAGAAGCAAAAGGC [AGAAGGATGTG T23A A29T] | 0.00429
GAGACCGCAACTGAAAAGTTGTTACAGAATGGATGGTTGAATTTCTGCACGTAGAAGCAAAAGGC [ACAGTGGATTG] | 0.013
GAGACCGCAACTGAAAAGTTGTTACGAAATGGATGGGTTAATTTCTGCACGTAGAAGCAAAAGGC [ACGATGGATGT] | 0.0146
GAGACCGCAACTGAAAAGTTGTTACAGAAATGTGGGTTGAATTTCTGCACGTAGAAGCAAAAGGC [ACAGATGTGTG] | 0.00297
GAGACCGCAACTGAAAAGTTGTTTCGAAATGGTGGGTTGAATTTCTGCACGTAGAAGCAAAAGGC [TCGATGGTGTG] | 0.00336
GAGACCGCAACTGAAAAGTTGTTACGAAATGGATGGGTTGATTTCTGCACGTAGAAGCAAAAGGC [ACGATGGATGT A40G] | 0.0424
GAGACCGCAACTGAAAAGTTGTTACAGAATGGAGGGTTGAATTTCTGCACGTAGAAGCAAAAGGC [ACAGTGGAGTG] | 0.00292
GAGACCGCAACTGAAAAGTTGTTTCGAAATGGATGGGTTAATTTCTGCACGTAGAAGCAAAAGGC [TCGATGGATGT] | 0.0171
GAGACCGCAACTGAAAAGTTGTTTCAGAAATGTGGGTTGAATTTCTGCACGTAGAAGCAAAAGGC [TCAGATGTGTG] | 0.00186
GAGACCGCAACTGAAAAGTTGTACGAAATGGATGGGTTGAATTTCTGCACGTAGAAGCAAAAGGC [CGAAGGATGTG T23A A29T] | 0.00782
GAGACCGCAACTGAAAAGTTGTTTCGAATGGATGGGTTGAATTTCTGCACGTAGAAGCAAAAGGC [TCGAGGATGTG A29T] | 0.0105
GAGACCGCAACTGAAAAGTTGTTTCAGATGGATGGGTTGAATTTCTGCACGTAGAAGCAAAAGGC [TCAGGGATGTG A29T] | 0.00613
GAGACCGCAACTGAAAAGTTGTATCAGAATGGAGGGTTGAATTTCTGCACGTAGAAGCAAAAGGC [TCAGTGGAGTG T23A] | 0.00419
GAGACCGCAACTGAAAAGTTGTATCGAAATGGATGGGTTAATTTCTGCACGTAGAAGCAAAAGGC [TCGATGGATGT T23A] | 0.0123

Variant | fraction ligated
GAGACCGCAACTGAAAAGTTGTTTCAGAAATGGTGGGTTAATTTCTGCACGTAGAAGCAAAAGGC [TCAGATGGTGT] | 0.00178
GAGACCGCAACTGAAAAGTTGTTTGAAATGGATGGGTTGAATTTCTGCACGTAGAAGCAAAAGGC [TGAAGGATGTG A29T] | 0.00393
GAGACCGCAACTGAAAAGTTGTTACAGAAATGGTGGGTTGATTTCTGCACGTAGAAGCAAAAGGC [ACAGATGGTGT A40G] | 0.00805
GAGACCGCAACTGAAAAGTTGTTTCAGAAGGATGGGTTGAATTTCTGCACGTAGAAGCAAAAGGC [TCAGGGATGTG] | 0.00365
GAGACCGCAACTGAAAAGTTGTTACAGAAATGGTGGGTTAATTTCTGCACGTAGAAGCAAAAGGC [ACAGATGGTGT] | 0.002
GAGACCGCAACTGAAAAGTTGTTACGAAATGGAGGGTTGAATTTCTGCACGTAGAAGCAAAAGGC [ACGATGGAGTG] | 0.00302
GAGACCGCAACTGAAAAGTTGTTTCGAAATGGATGGGTTGATTTCTGCACGTAGAAGCAAAAGGC [TCGATGGATGT A40G] | 0.0635
GAGACCGCAACTGAAAAGTTGTATCAGAAATGGTGGGTTAATTTCTGCACGTAGAAGCAAAAGGC [TCAGATGGTGT T23A] | 0.00338
GAGACCGCAACTGAAAAGTTGTTACAGAATGGATGGGTTGATTTCTGCACGTAGAAGCAAAAGGC [ACAGTGGATGT A40G] | 0.017
GAGACCGCAACTGAAAAGTTGTTATAGAAAGATGGGTTGAATTTCTGCACGTAGAAGCAAAAGGC [ATAGAGATGTG] | 0.00202
GAGACCGCAACTGAAAAGTTGTATCAGAAATGGTGGTTGAATTTCTGCACGTAGAAGCAAAAGGC [TCAGATGGTTG T23A] | 0.00182
GAGACCGCAACTGAAAAGTTGTTACAGAAATGGTGGTTGAATTTCTGCACGTAGAAGCAAAAGGC [ACAGATGGTTG] | 0.00164
GAGACCGCAACTGAAAAGTTGTTATAGAAAGGAGGGTTGAATTTCTGCACGTAGAAGCAAAAGGC [ATAGAGGAGTG] | 0.00165
GAGACCGCAACTGAAAAGTTGTTACAGAATGGTGGGTTGAATTTCTGCACGTAGAAGCAAAAGGC [ACAGTGGTGTG] | 0.00205
GAGACCGCAACTGAAAAGTTGTTACAGAAGGATGGGTTGAATTTCTGCACGTAGAAGCAAAAGGC [ACAGGGATGTG] | 0.00108
GAGACCGCAACTGAAAAGTTGTTATAAAATGGATGGTTGAATTTCTGCACGTAGAAGCAAAAGGC [ATAATGGATTG] | 0.00677
GAGACCGCAACTGAAAAGTTGTTATAAAAGGATGGGTTGAATTTCTGCACGTAGAAGCAAAAGGC [ATAAGGATGTG] | 0.00241
GAGACCGCAACTGAAAAGTTGTTTCGAAATGGAGGGTTGAATTTCTGCACGTAGAAGCAAAAGGC [TCGATGGAGTG] | 0.00518
GAGACCGCAACTGAAAAGTTGTTACAGAATGGATGGGTTAATTTCTGCACGTAGAAGCAAAAGGC [ACAGTGGATGT] | 0.00954
GAGACCGCAACTGAAAAGTTGTTATAAAATGATGGGTTGAATTTCTGCACGTAGAAGCAAAAGGC [ATAATGATGTG] | 0.00474
GAGACCGCAACTGAAAAGTTGTTACAGATGGATGGGTTGAATTTCTGCACGTAGAAGCAAAAGGC [ACAGGGATGTG A29T] | 0.00506

Source: the supplement of paper PMC6755084
